Results: publication PMC9135708

Target: anti-PfTRAP mAb AKBR-7 (mouse)
Assay: BLI; Octet QKe; antibodies in culture supernatants immobilized on anti-Mouse IgG Fc Capture biosensors; antigen serially diluted (1–1000 nM) in 10x Kinetics Buffer (PBS + 0.1% BSA, 0.02% Tween-20, 0.05% sodium azide); fit to the 1:1 binding model

B1: Plasmodium falciparum TRAP ectodomain (PfTRAP) (domain or fragment)
chain: RDVQNNIVDEIKYSEEVCNDQVDLYLLMDCSGSIRRHNWVNHAVPLAMKLIQQLNLNDNAIHLYVNVFSNNAKEIIRLHSDASKNKEKALIIIRSLLSTNLPYGRTNLTDALLQVRKHLNDRINRENANQLVVILTDGIPDSIQDSLKESRKLSDRGVKIAVFGIGQGINVAFNRFLVGCHPSDGKCNLYADSAWENVKNVIGPFMKAVCVEVEKTASCGVWDEWSPCSVTCGKGTRSRKREILHEGCTSEIQEQCEEERCPPKWEPLDVPDEPEDDQPRPRGDNSSVQKPEENIIDNNPQEPSPNPEEGKDENPNGFDLDENPENPPNPDIPEQKPNIPEDSEKEVPSDVPKNPEDDREENFDIPKKPENKHDNQNNLPNDKSDRNIPYSPLPPKVLDNERKQSDPQSQDNNGNRHVPNSEDRETRPHGRNNENRSYNRKYNDTPKHPEREEHEKPDNNKKKGESDNKYK
modifications: site-specific biotinylation using BirA ligase, when required
Kd: 0.15 nM
